Measured values published in patent publication US20240366778A1 (CSPC MEGALITH BIOPHARMARCEUTICAL, published 2024).

T1: Human Nectin-4 Protein, His Tag (human, UniProt Q96NY8 32-349)
T1 construct: not shown: His tag
T1 sequence (looked up): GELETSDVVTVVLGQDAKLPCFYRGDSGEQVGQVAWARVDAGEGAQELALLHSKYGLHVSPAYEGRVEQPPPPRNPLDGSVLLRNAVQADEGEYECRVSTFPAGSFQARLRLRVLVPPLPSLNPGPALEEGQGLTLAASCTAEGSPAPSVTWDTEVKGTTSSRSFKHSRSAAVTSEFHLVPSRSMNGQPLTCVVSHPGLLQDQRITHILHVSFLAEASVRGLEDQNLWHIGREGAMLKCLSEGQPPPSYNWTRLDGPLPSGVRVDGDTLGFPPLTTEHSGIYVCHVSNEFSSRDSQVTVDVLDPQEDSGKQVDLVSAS

T2: Recombinant Rat Nectin-4 His-tag Protein, CF (rat, UniProt D3ZET1 31-348)
T2 construct: not shown: His tag
T2 sequence: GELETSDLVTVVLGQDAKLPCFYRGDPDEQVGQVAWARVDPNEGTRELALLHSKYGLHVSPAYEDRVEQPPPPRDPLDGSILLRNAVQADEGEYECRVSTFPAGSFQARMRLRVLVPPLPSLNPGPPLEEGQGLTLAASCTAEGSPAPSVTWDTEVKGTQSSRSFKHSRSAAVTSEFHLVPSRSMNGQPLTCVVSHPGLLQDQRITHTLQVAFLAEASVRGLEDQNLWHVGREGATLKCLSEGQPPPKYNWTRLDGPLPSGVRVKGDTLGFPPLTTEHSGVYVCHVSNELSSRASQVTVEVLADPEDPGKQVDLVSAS

T3: Cynomolgus Nectin-4 Protein, His Tag (cynomolgus, UniProt A0A2K5WES1 32-349)
T3 construct: not shown: His tag
T3 sequence: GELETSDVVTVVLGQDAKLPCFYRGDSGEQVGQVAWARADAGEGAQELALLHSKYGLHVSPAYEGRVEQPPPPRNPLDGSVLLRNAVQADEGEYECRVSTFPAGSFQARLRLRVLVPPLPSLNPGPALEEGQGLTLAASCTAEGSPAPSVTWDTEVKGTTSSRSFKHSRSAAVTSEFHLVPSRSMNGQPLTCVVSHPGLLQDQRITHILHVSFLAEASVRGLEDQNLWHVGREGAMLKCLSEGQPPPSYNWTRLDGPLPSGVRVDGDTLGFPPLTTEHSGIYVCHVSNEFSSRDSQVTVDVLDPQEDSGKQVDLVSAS

T4: Mouse Nectin-4 Protein, His Tag (mouse, UniProt Q8R007 31-347)
T4 construct: not shown: His tag
T4 sequence (looked up): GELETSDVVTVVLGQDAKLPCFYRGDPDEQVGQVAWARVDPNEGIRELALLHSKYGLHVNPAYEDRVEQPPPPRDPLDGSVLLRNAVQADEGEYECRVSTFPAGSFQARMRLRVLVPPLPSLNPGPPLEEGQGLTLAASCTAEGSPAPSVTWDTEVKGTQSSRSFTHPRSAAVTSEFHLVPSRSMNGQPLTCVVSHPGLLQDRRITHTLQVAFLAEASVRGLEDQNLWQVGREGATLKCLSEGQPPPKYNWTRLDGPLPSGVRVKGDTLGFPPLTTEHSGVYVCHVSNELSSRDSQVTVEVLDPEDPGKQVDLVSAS

T5: Recombinant Rat Nectin-4 His-tag Protein, CF (rat) (UniProt D3ZET1)
T5 sequence: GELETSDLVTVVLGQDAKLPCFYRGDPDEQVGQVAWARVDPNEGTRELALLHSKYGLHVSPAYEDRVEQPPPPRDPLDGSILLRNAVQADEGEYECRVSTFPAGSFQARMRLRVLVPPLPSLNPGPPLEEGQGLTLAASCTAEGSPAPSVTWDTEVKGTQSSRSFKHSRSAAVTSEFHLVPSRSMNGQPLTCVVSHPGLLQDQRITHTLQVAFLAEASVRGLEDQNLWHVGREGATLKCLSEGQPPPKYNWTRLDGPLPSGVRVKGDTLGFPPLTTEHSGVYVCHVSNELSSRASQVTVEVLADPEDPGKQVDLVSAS


Assays:
[1] = target: T1, Human Nectin-4 Protein, His Tag; assay: BLI (Fortebio), antibody with human Nectin-4 protein
Description: In this experiment, Fortebio was used to detect the affinity of Nectin-4 humanized antibodies to human Nectin-4 protein. After the Nectin-4 protein was incubated with the anti-Nectin-4 antibody sample, the signal value was detected by Fortebio to analyze the affinity of the sample to human Nectin-4. […] The chimeric antibodies were engineered on the basis of mouse-derived antibodies, and the constant region is selected from human IgG1.

[2] = target: T2, Recombinant Rat Nectin-4 His-tag …; assay: ELISA, Nectin-4 protein with antibody dilutions, goat anti-human IgG secondary antibody
Description: (§1) The affinities of Nectin-4 humanized antibodies to Nectin-4 proteins of different species were performed by ELISA. Nectin-4 proteins of different species (human Nectin-4, cynomolgus Nectin-4, rat Nectin-4, mouse Nectin-4) were incubated with Nectin-4 humanized antibody samples of different concentrations, and then incubated with the secondary antibody which binds IgG (Goat anti-Human IgG (H+L) Cross-Adsorbed Secondary Antibody. The signal values of different concentrations were detected by ELISA to analyze the affinities of the samples to Nectin-4 proteins of different species. The experimental results are shown in Table 6, showing that the Nectin-4 humanized antibodies have good affinity for human, rat and cynomolgus Nectin-4 proteins.

[3] = target: T3, Cynomolgus Nectin-4 Protein, His Tag; assay: as above
Description: as §1

[4] = target: T4, Mouse Nectin-4 Protein, His Tag; assay: as above
Description: as §1

[5] = target: T1, Human Nectin-4 Protein, His Tag; assay: as above
Description: as §1

[6] = target: T5, Recombinant Rat Nectin-4 His-tag Protein, CF (rat); assay: as above
[7] = target: Cynomolgus Nectin-4 Protein, His Tag (cynomolgus); assay: as above

Row | Binder | Kd [1] | koff [1] | kon [1] | EC50 [2] | EC50 [3] | EC50 [4] | EC50 [5] | EC50 [6] | EC50 [7]
1 | humanized antibody SWY2001-Ab3 (antibody, human IgG1, kappa, V domains shown, Full-length IgG1, kappa) VH: QVQLVQSGAEVKKPGASVKVSCKASGYTFTSYYIHWVRQAPGQRLEWMGWIYPGNVNTKYNENFRDRVTITRDTSASTAYMELSSLRSEDTAVYYCARGIYYFDYWGQGTLVTVSS VL: AIQMTQSPSSLSASVGDRVTITCKASQSVNNDVAWYQQKPGKAPKLLIYYASNRDTGVPSRFSGSGSGTDFTLTISSLQPEDFATYFCHQDYSSPFTFGGGTKVEIKR | 5.08 nM | 0.00425 s⁻¹ | 836000 M⁻¹ s⁻¹ | 0.000942 µg/mL | 0.000832 µg/mL | 2210 µg/mL | 0.00102 µg/mL | – | –
2 | PADCEV (antibody, INN chains, looked up, V domains shown, vedotin (MMAE) payload) VH: EVQLVESGGGLVQPGGSLRLSCAASGFTFSSYNMNWVRQAPGKGLEWVSYISSSSSTIYYADSVKGRFTISRDNAKNSLSLQMNSLRDEDTAVYYCARAYYYGMDVWGQGTTVTVSS VL: DIQMTQSPSSVSASVGDRVTITCRASQGISGWLAWYQQKPGKAPKFLIYAASTLQSGVPSRFSGSGSGTDFTLTISSLQPEDFATYYCQQANSFPPTFGGGTKVEIKR | – | – | – | – | – | 0.0824 µg/mL | 0.000877 µg/mL | 0.00101 µg/mL | 0.000968 µg/mL

Now from value to binder:

Row | Kd [1] | koff [1] | kon [1] | EC50 [2] | EC50 [3] | EC50 [4] | EC50 [5] | EC50 [6] | EC50 [7] | Binder
3 | 2.8 nM | 0.00181 s⁻¹ | 646000 M⁻¹ s⁻¹ | – | – | – | – | – | – | Chimeric antibody (antibody, V domains shown, also called chimeric anti-Nectin-4 antibody; murine antibody variable regions on human IgG1) VH: QVQLQQSGPVLVKPGASVRISCKASGYTFTSYYIHWVKQRPGQGLEWIGWIYPGNVNTKYNENFRDKATLTADKSSSTSYMQLSSLTSEDSAVYFCARGIYYFDYWGQGTTLTVSS VL: IIVMTQTPKFLLVSAGDRVTITCKASQSVNNDVAWYQEKPGQSPKLLIYYASNRDTGVPDRFTGSGYGTDFTFTISTVQAEDLAVYFCHQDYSSPFTFGSGTKLEIK
4 | 5.51 nM | 0.00414 s⁻¹ | 752000 M⁻¹ s⁻¹ | 0.000726 µg/mL | 0.000646 µg/mL | 1050 µg/mL | 0.00113 µg/mL | – | – | humanized antibody SWY2001-Ab2 (antibody, human IgG1, kappa, V domains shown, Full-length IgG1, kappa) VH: QVQLVQSGAEVKKPGASVKVSCKASGYTFTSYYIHWVRQAPGQRLEWMGWIYPGNVNTKYNENFRDRVTITRDTSASTAYMELSSLRSEDTAVYYCARGIYYFDYWGQGTLVTVSS VL: AIQMTQSPSSLSASVGDRVTITCKASQSVNNDVAWYQQKPGKAPKLLIYYASNRDTGVPSRFSGSGSGTDFTLTISSLQAEDLAVYFCHQDYSSPFTFGGGTKVEIKR
5 | 5.92 nM | 0.00447 s⁻¹ | 756000 M⁻¹ s⁻¹ | 0.000857 µg/mL | 0.000647 µg/mL | – | 0.00121 µg/mL | – | – | humanized antibody SWY2001-Ab1 (antibody, human IgG1, kappa, V domains shown) VH: QVQLVQSGAEVKKPGASVKVSCKASGYTFTSYYIHWVRQAPGQRLEWMGWIYPGNVNTKYNENFRDRVTITRDTSASTAYMELSSLRSEDTAVYYCARGIYYFDYWGQGTLVTVSS VL: IIQMTQSPKFLSASVGDRVTITCKASQSVNNDVAWYQQKPGQSPKLLIYYASNRDTGVPDRFSGSGSGTDFTLTISSLQPEDFATYFCHQDYSSPFTFGGGTKVEIKR
